Source: publication PMC10559304 (Molecular Biology of the Cell, 2023)
Like-named read-outs stand apart in the source and are kept apart here.

Experiments:
[1] = molecular target: Taxol-stabilized microtubules of unlabeled, Alexa 647-labeled and biotinylated tubulin (50:2:1.5) (not stated (Pork or Bovine brains)); test: single-molecule TIRF microscopy motility assay
[2] = molecular target: GMPCPP-polymerized, Taxol-stabilized microtubules of the crosslinking and sliding assay (surface-immobilized HiLyte 647/biotin MTs and free rhodamine MTs); test: MT crosslinking and sliding assay by three-colour TIRF microscopy
[3] = molecular target: D. melanogaster KLP61F extended bipolar assembly domain (BASS-XL) minifilament (D. melanogaster) (UniProt P46863); test: crystal structure
[4] = molecular target: microtubules of biotin- and Alexa-Fluor-633-labeled porcine tubulin, polymerized with GMPCPP or Paclitaxel (porcine); test: single-molecule TIRF microscopy motility assay
[5] = molecular target: the molecule itself; test: single-molecule TIRF microscopy, Neon Green spot intensities
mass photometry = molecular target: the molecule itself; test: mass photometry
[6] = molecular target: microtubules of biotin- and Alexa-Fluor-633-labeled porcine tubulin, polymerized with GMPCPP or Paclitaxel (porcine); test: single-molecule TIRF microscopy motility assay; remark: listed apart in the source
[7] = molecular target: microtubules of biotin- and Alexa-Fluor-633-labeled porcine tubulin, polymerized with GMPCPP or Paclitaxel (porcine); test: single-molecule TIRF microscopy motility assay; remark: listed apart in the source
[8] = molecular target: microtubules of biotin- and Alexa-Fluor-633-labeled porcine tubulin, polymerized with GMPCPP or Paclitaxel (porcine); test: single-molecule TIRF microscopy motility assay; remark: listed apart in the source
[9] = molecular target: microtubules of biotin- and Alexa-Fluor-633-labeled porcine tubulin, polymerized with GMPCPP or Paclitaxel (porcine); test: single-molecule TIRF microscopy motility assay; remark: listed apart in the source

**Q.** Which results are given for “human Eg5 kinesin-5 minitetramer without tail, labeled with Tetra-methyl Rhodamine (from UniProt P52732;P46863)”?
**A.** lifetime at MT plus-ends, long population (Weibull a2) [1]: 140 s; lifetime at MT plus-ends, short population (Weibull a1) [1]: 14.6 s

**Q.** “full-length human kinesin-5 (Eg5) without the tail, GFP fusion (domain or fragment)” was tested. Which percent of surface-immobilized MTs crosslinked to free MTs [2] did it give?
**A.** 54%

**Q.** With “D. melanogaster KLP61F extended bipolar assembly domain (BASS-XL) minifilament (from UniProt P46863 597-833) (domain or fragment)” as the molecule, how does the stoichiometry N [3] read?
**A.** 4

B1: D. melanogaster KLP61F kinesin-5 minitetramer with tail, fused to Neon Green (other)
chain: MDISGGNTSRQPQKKSNQNIQVYVRVRPLNSRERCIRSAEVVDVVGPREVVTRHTLDSKLTKKFTFDRSFGPESKQCDVYSVVVSPLIEEVLNGYNCTVFAYGQTGTGKTHTMVGNETAELKSSWEDDSDIGIIPRALSHLFDELRMMEVEYTMRISYLELYNEELCDLLSTDDTTKIRIFDDSTKKGSVIIQGLEEIPVHSKDDVYKLLEKGKERRKTATTLMNAQSSRSHTVFSIVVHIRENGIEGEDMLKIGKLNLVDLAGSENVSKAGNEKGIRVRETVNINQSLLTLGRVITALVDRAPHVPYRESKLTRLLQESLGGRTKTSIIATISPGHKDIEETLSTLEYAHRAKNIQNKPEVNQKLTKKAQSLQDQTNLHNKLIGEVMKISDQHSQAFVAKLMEQMQQQQLLMSKEIQTNLQVIEENNQRHKAMLDSMQEKFATIIDSSLQSVEEHAKQMHKKLEQLGAMSLPDAEELQNLQEELANERALAQQEDALLESMMMQMEQIKNLRSKNSISMSVHLNKMEESRLTRNHRIDDIKSGIQDYQKLGIEASQSAQAELTSQMEAGMLCLDQGVANCSMLQVHMKNLNQKYEKETNENVGSVQICEQELVRFQQSELKTYAPTGTTPSKRDFVYPRTLVATSPHQEIVRRYRQELDWSDLDTTATIDECSEGEHDVSMHSVQELSETETIMNSTPIEPVDGVTVKRGCGTTRNSNSNALKPPVATGGKRSSSLSRSLTPSKTSPRGSPAFVRHNKENVA
**Q.** Which MT plus-end dwell time [4] does the source give for B1 here?
**A.** 267 s

**Q.** And the “stoichiometry N” value [5]?
**A.** 5 to 10 motors per cluster

**Q.** And the “stoichiometry N” value (mass photometry)?
**A.** 4

**Q.** What about the MT plus-end dwell time [6] of the same molecule?
**A.** 25 s

**Q.** What about the MT plus-end dwell time [7] of the same molecule?
**A.** 147 s

**Q.** What about the MT plus-end dwell time [8] of the same molecule?
**A.** 125 s

**Q.** And the MT plus-end dwell time [9]?
**A.** 117 s

**Q.** What about the percent of surface-immobilized MTs crosslinked to free MTs [2] of the same molecule?
**A.** 24%

B2: D. melanogaster KLP61F kinesin-5 minitetramer without tail, fused to Neon Green (other)
chain: MDISGGNTSRQPQKKSNQNIQVYVRVRPLNSRERCIRSAEVVDVVGPREVVTRHTLDSKLTKKFTFDRSFGPESKQCDVYSVVVSPLIEEVLNGYNCTVFAYGQTGTGKTHTMVGNETAELKSSWEDDSDIGIIPRALSHLFDELRMMEVEYTMRISYLELYNEELCDLLSTDDTTKIRIFDDSTKKGSVIIQGLEEIPVHSKDDVYKLLEKGKERRKTATTLMNAQSSRSHTVFSIVVHIRENGIEGEDMLKIGKLNLVDLAGSENVSKAGNEKGIRVRETVNINQSLLTLGRVITALVDRAPHVPYRESKLTRLLQESLGGRTKTSIIATISPGHKDIEETLSTLEYAHRAKNIQNKPEVNQKLTKKAQSLQDQTNLHNKLIGEVMKISDQHSQAFVAKLMEQMQQQQLLMSKEIQTNLQVIEENNQRHKAMLDSMQEKFATIIDSSLQSVEEHAKQMHKKLEQLGAMSLPDAEELQNLQEELANERALAQQEDALLESMMMQMEQIKNLRSKNSISMSVHLNKMEESRLTRNHRIDDIKSGIQDYQKLGIEASQSAQAELTSQMEAGMLCLDQGVANCSMLQVHMKNLNQKYEKETNENVGSV
**Q.** For B2, which MT plus-end dwell time [4] is on record?
**A.** 25 s

**Q.** And the “stoichiometry N” value (mass photometry)?
**A.** 4

**Q.** What about the MT plus-end dwell time [9] of the same molecule?
**A.** 78 s

**Q.** And the percent of surface-immobilized MTs crosslinked to free MTs [2]?
**A.** 2%
